Reference: publication PMC8458281, “Computational modeling and experimental validation of the EPI-X4/CXCR4 complex allows rational design of small peptide antagonists” (Communications Biology, 2021)

B1: EPI-X4 JM#21 [human] / CXCR4 wt (transfected 293T cells) [human] (parent complex)
chain 1: ILRWSRKLPCVS
chain 2: MEGISIYTSDNYTEEMGSGDYDSMKEPCFREENANFNKIFLPTIYSIIFLTGIVGNGLVILVMGYQKKLRSMTDKYRLHLSVADLLFVITLPFWAVDAVANWYFGNFLCKAVHVIYTVNLYSSVLILAFISLDRYLAIVHATNSQRPRKLLAEKVVYVGVWIPALLLTIPDFIFANVSEADDRYICDRFYPNDLWVVVFQFQHIMVGLILPGIVILSCYCIIISKLSHSKGHQKRKALKTTVILILAFFACWLPYYIGISIDSFILLEIIKQGCEFENTVHKWISITEALAFFHCCLNPILYAFLGAKFKTSAQHALTSVSRGSSLKILSKGKRGGHSSVSTESESSSFHSS
B2: WSC02 [human] / CXCR4 wt (transfected 293T cells) [human] (parent complex)
chain 1: IVRWSKKVPCVS
chain 2: B1 chain 2

Variants of: B1
Test: 12G5 antibody competition assay, flow cytometry on transfected 293T cells; 2 h incubation; IC50 set to 100 µM if above the maximally used concentration; parent: 620 nM; read off a plot

Variant	IC50 [µM]
chain 2 D97S	~5.4
chain 2 V112A	~3.4
chain 2 E277A	~0.27
chain 2 D97T	~3.7
chain 2 L41A, chain 2 V112A	~0.63
chain 2 V112L	~0.4
chain 2 D97E, chain 2 V112A	~0.46
chain 2 D97E	~1.8
chain 2 D97Q	~8
chain 2 D97E, chain 2 V112L	~0.38
chain 2 D262A	~0.22
chain 2 L41A	~0.65

Variants of: B2
Test: 12G5 antibody competition assay, flow cytometry on transfected 293T cells; 2 h incubation; IC50 set to 1000 µM if above the maximally used concentration; parent: 1e+03 nM; read off a plot

Variant	IC50 [µM]
chain 2 D97E, chain 2 V112L	~1.7
chain 2 D97T	~30
chain 2 D262A	~0.45
chain 2 D97E, chain 2 V112A	~1.7
chain 2 E277A	~0.75
chain 2 L41A	~1.5
chain 2 D97Q	~690
chain 2 V112L	~0.4
chain 2 V112A	~0.6
chain 2 D97N	~380
chain 2 L41A, chain 2 V112A	~4.8
chain 2 D97S	~320
chain 2 D187E	~0.42
chain 2 D97E	~8
